Laboratory results taken from publication PMC6315561.

Legend:
[1] = molecular target: ΔRBP1_(Phi4.2) baseplate complex (Dit, Tal, RBP2) (Lactococcus phage Phi4.2); assay: negative stain electron microscopy; purified baseplate complexes at 0.03 mg/mL on carbon-coated grids, Ca2+ in the protein buffer; baseplate to back-to-back dimer of baseplates
[2] = molecular target: Full baseplate complex of phage Phi4.2 (Dit, Tal, RBP1, RBP2) (Lactococcus phage Phi4.2); assay: as above

Row | Substance | stoichiometry N [1] | stoichiometry N [2]
1 | ΔRBP1_(Phi4.2) baseplate complex (Dit, Tal, RBP2) | 2 | 
2 | Full baseplate complex of phage Phi4.2 (Dit, Tal, RBP1, RBP2) |  | 2
